This note sets out measurements from patent US20240270839A1 (ELPISCIENCE SUZHOU BIOPHARMA, published 2024).

Numbering of substitutions follows the chain as printed. Values joined by “and” are separate entries in the source; they are usually repeats but may differ in a detail not shown here. Equal entries are not always repeated. Where two headings read alike, the source gives them in different places.

For test [1], the target named is human CLDN18.2 (hCLDN18.2), expressed on cells (human). In words: cell-based or functional assay.
The target of test [2] is T1, human CLDN18.2 (hCLDN18.2), expressed on cells (human).
T1 construct: the constructs in the cell lines are not described; also called Claudin18.2; HEK293-hCLDN18.2
The experiment in a line: FACS, MFC cells over-expressing hCLDN18.2. (In general: In flow cytometry, cells or beads pass a laser one at a time.)

Test [3] concerns the target T1, human CLDN18.2 (hCLDN18.2), expressed …. In words: cell-based or functional assay. This is another data set of the same source.
Test [4] shares this target. In words: FACS, SNU620 cells (endogenous CLDN18.2).
The target is the same in test [5]. In words: FACS, HEK293/hCLDN18.2 cells.
The target is the same in test [6]. In words: FACS, HEK293/hCLDN18.2 cells; FACS, HEK293/hCLDN18.2 cells (stable over-expression).
Test [7] has the same target. In words: FACS, SNU620 cells (endogenous CLDN18.2); FACS, SNU620 cells (native CLDN18.2).
Test [8] shares this target. In words: FACS, MFC cells over-expressing hCLDN18.2; MFC cells; second panel, run beside the hu22E12 H3 and H4 variants.
Test [9] shares this target. In words: FACS, MFC cells over-expressing hCLDN18.2; MFC cells; first panel, run beside the hu22E12 H1 and H2 variants.
Test [10] has the same target. In words: cell-based or functional assay. This is another data set of the same source.
Test [11] has the same target. The experiment in a line: FACS, SNU620 cells over-expressing hCLDN18.2.

B1: ch22E12 (antibody, V domains shown)
VH: QVQLQQPGTELVKTGTSVKLSCKASGYTFTNWVHWVIQRPGQGLEWIGEINPTNGRSNYNEKFKKKATLTLDRSSTTAYMQLSSLTSEDSAVYFCAGIYYGNSFAHWGQGTLVTVSA
VL: DIVMTQSPSSLTVTAGEKVTLSCKSSQSLLNSGNQKNYLTWYQQKPGQPPKLLIYWSSTRESGVPDRFTGSGSGTDFTLTISSVQAEDLAVYHCQNNYYYPLTFGAGTKLELK
Usually EC50 stands for the concentration that produces a half-maximal response. For B1, the “PBMC VS NUGC4 ADCC (EC50 nM)” value in [1] came out at 1.06 nM. Moreover, in [2], the concentration for a half-maximal effect (EC50) was 1060 pM and 943 pM. The “ADCC EC50 (nM), NK-CD16a effector cells” value in [3] was 0.126 nM.

B2: 22E12 (antibody, V domains shown)
VH: B1 VH
VL: B1 VL
notes: mouse hybridoma antibody, purified; also called clone 22E12
Turning to B2, the figures for the half-maximal effective concentration (EC50) in [4] and in test [5] were 2100 pM and 860 pM, respectively.

B3: 97A9 (antibody, V domains shown)
VH: QVQLQQSGPELVKPGASMKLSCKASGYSFTRNDINWVKQRPGQGLEWIGLSYPRDGTTQYNGKFKGKATLTVDTSSSTAYMELRSLTSEDSAVYFCARGYYGNSFAYWGQGTLVTVSA
VL: B1 VL with L21M, S57A, D76Y, H93F, N97D, Y100F, L102Y, A106G, L112I
notes: mouse hybridoma antibody, purified; also called clone 97A9
For B3, the EC50 in test [4] was 3300 pM; in test [5], 1600 pM.

B4: 60F11 (antibody, V domains shown)
VH: QVQLQQPGAELVKPGASVKLSCKASGYTFTSYWMHWVKQRPGQGLEWIGMIHPNSGSTNYNEKFKSKATLTVDKSSSTAYMQLSSLTSEDSAVYYCARMGLGNAMDYWGQGTSVTVSS
VL: B1 VL with K36R, S57A, H93Y, N97A, Y99S
notes: mouse hybridoma antibody, purified; also called clone 60F11
For B4, the concentration giving a half-maximal response (EC50) was determined as 810 pM in [6] and 3500 pM in [7].

B5: IMAB362 (Zolbetuximab) (antibody, human IgG1, kappa, V domains shown)
VH: QVQLQQPGAELVRPGASVKLSCKASGYTFTSYWINWVKQRPGQGLEWIGNIYPSDSYTNYNQKFKDKATLTVDKSSSTAYMQLSSPTSEDSAVYYCTRSWRGNSFDYWGQGTTLTVSS
VL: DIVMTQSPSSLTVTAGEKVTMSCKSSQSLLNSGNQKNYLTWYQQKPGQPPKLLIYWASTRESGVPDRFTGSGSGTDFTLTISSVQAEDLAVYYCQNDYSYPFTFGSGTKLEIKR
As for B5, the concentration for a half-maximal effect (EC50) came to 710 pM in test [6], 42700 pM in test [8] and 23500 pM in [9]. Moreover, the “PBMC VS NUGC4 ADCC (EC50 nM)” value in [1] is 25.1 nM. Besides, in test [3], the “ADCC EC50 (nM), NK-CD16a effector cells” value was found to be 0.228 nM.

B6: 99H8 (antibody, V domains shown)
VH: QVQLQQSGPELVKPGASVKLSCKASGYSFTNFDINWVKQRPGQGLQWIGRLYPRDGTTTYNEKFKGKASLTVDTSSTTSYMDLHSLTSEDSAVYFCVRGNYGNSFAYWGQGTLVTVSA
VL: DIVMTQSPSSLTVTAREKVIMNCKSSQSLFNSGNQKNYLTWYQQKPGQSPKLLIYWASTRQSGVPDRFTGSGSGTDFTLTISTVQAEDLAVYFCQNGFSFPYTFGGGTKLEMN
notes: mouse hybridoma antibody, purified; also called clone 99H8
As for B6, the EC50 in [4] was 19000 pM; in test [5], 1100 pM.

B7: hu35B4.H1L2-ADE (antibody, human IgG1)
heavy: EVQLLESGGGLVQPGGSLRLSCAASGFTLSSYALSWVRQAPGKGLEWVSYISNLGGSTFYPDTVKGRFTISRDNSKNTLYLQMNSLRAEDTAVYYCAKHLYNYDAFASWGQGTLVTVSSASTKGPSVFPLAPSSKSTSGGTAALGCLVKDYFPEPVTVSWNSGALTSGVHTFPAVLQSSGLYSLSSVVTVPSSSLGTQTYICNVNHKPSNTKVDKKVEPKSCDKTHTCPPCPAPELLAGPDVFLFPPKPKDTLMISRTPEVTCVVVDVSHEDPEVKFNWYVDGVEVHNAKTKPREEQYNSTYRVVSVLTVLHQDWLNGKEYKCKVSNKALPAPEEKTISKAKGQPREPQVYTLPPSREEMTKNQVSLTCLVKGFYPSDIAVEWESNGQPENNYKTTPPVLDSDGSFFLYSKLTVDKSRWQQGNVFSCSVMHEALHNHYTQKSLSLSPGK
VL: DIQLTQSPSFLSASVGDRVTITCRASSSVNYIHWYQQKPGKAPKALIYATSNLASGVPSRFSGSGSGTEYTLTISSLQPEDFATYYCQQWNSNPLTFGQGTKLEIK
B7: the “ADCC EC50 (nM), NK-CD16a effector cells” value in test [10] was found to be 7.1e-05 nM.

B8: hu35B4.H1L2-DE (antibody, human IgG1)
heavy: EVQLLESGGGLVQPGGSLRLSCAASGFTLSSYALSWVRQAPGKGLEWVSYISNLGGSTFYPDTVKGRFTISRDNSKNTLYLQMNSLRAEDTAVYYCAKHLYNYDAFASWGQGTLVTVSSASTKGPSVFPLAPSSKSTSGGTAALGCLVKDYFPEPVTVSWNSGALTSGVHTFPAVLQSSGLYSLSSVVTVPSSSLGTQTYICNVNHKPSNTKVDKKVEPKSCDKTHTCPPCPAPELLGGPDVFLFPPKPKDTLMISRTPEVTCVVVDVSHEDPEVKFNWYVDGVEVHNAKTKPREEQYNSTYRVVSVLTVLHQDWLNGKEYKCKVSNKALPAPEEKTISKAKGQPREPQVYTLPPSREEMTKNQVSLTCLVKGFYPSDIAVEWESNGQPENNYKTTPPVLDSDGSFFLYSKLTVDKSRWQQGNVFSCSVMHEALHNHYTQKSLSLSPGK
VL: B7 VL
On to B8, for which, in test [10], the “ADCC EC50 (nM), NK-CD16a effector cells” value is 2.75e-05 nM.

B9: hu35B4.H1L2-DLE (antibody, human IgG1)
heavy: B7 heavy with A238G, A332L
VL: B7 VL
For B9, the “ADCC EC50 (nM), NK-CD16a effector cells” value in test [10] came out at 1.32e-05 nM.

B10: hu35B4.H1L2-VLPLL (antibody, human IgG1)
heavy: B7 heavy with L237V, A238G, D241S, F245L, R294P, Y302L, E334I, P398L
VL: B7 VL
B10: in test [10], the “ADCC EC50 (nM), NK-CD16a effector cells” value was 9.43e-05 nM.

B11: hu35B4.H1L2 (antibody, V domains shown)
VH: EVQLLESGGGLVQPGGSLRLSCAASGFTLSSYALSWVRQAPGKGLEWVSYISNLGGSTFYPDTVKGRFTISRDNSKNTLYLQMNSLRAEDTAVYYCAKHLYNYDAFASWGQGTLVTVSS
VL: B7 VL
notes: humanized 35B4
In turn, B11 yielded an EC50 in test [11] of 253 pM. The “ADCC EC50 (nM), NK-CD16a effector cells” value in test [10] stood at 0.02 nM.

B12: ch35B4 (antibody, V domains shown)
VH: EAKLVESGGDFMQPGGSLKLSCAASGFTLSSYALSWVRQTPEKRLEWVAYISNLGGSTFYPDTVKGRFTISRDNARNTLFLQMSSLQSEDTAIYYCATHLYNYDAFASWGQGTLVTVSA
VL: QIVLSQSPAILSASPGEKVTMTCRASSSVNYIHWYQQKPGSSPKAWIYATSNLASGVPTRFSGSGSGTSYSLTIDRVEAEDAATYYCQQWNSNPLTFGAGTKLELK
As for B12, the EC50 in test [11] was 419 pM and 442 pM. Besides, in [1], the “PBMC VS NUGC4 ADCC (EC50 nM)” value was 4.05 nM. For the same molecule, in [10], the “ADCC EC50 (nM), NK-CD16a effector cells” value is 0.0803 nM.

B13: 33G12 (antibody, V domains shown)
VH: EVKLVESGGGLVQPGGSLKLSCAASGFTFSRYAMSWVRQTPEKRLEWVAYISIGGTTYYPDTIKGRFTISRDNAKNTLYLQMSSLKSEDTAMYYCTRHYYGHDVMDYWGQGTSVTVSS
VL: B12 VL with A9T, S26T, N30S, I32M, Y35F, A45P, T59A, D75S, N91S, S92R
notes: mouse hybridoma antibody, purified; also called clone 33G12
As for B13, the EC50 in [4] stood at 1100 pM; in test [5], 560 pM.

B14: 35B4 (antibody, V domains shown)
VH: B12 VH
VL: B12 VL
notes: mouse hybridoma antibody, purified; also called clone 35B4
B14: the EC50 in [4] amounted to 3800 pM; in test [5] it was 850 pM.
